Measured values from patent US20250313627A1 (FUSE BIOTHERAPEUTICS, published 2025).

B1: FUSE-393 (bispecific antibody, human IgG1, lambda, L234A L235A)
chain: QVQLQESGGGSVQAGGSLKLSCTASGYTNRLKCMGWFRQAPGKEREEIATISTGTGNTYYADSVKGRFTFSQDKVKNTVYLQMNTLKPDDTGMYYCAADVRPDGTTCHYNSGGQGTQVTVSSGGGGSGGGGSGGGGSQVQLQESGGGSVQAGGSLKLSCTASGYTNRLKCMGWFRQAPGKEREEIATISTGTGNTYYADSVKGRFTFSQDKVKNTVYLQMNTLKPDDTGMYYCAADVRPDGTTCHYNSGGQGTQVTVSSEPKSSDKTHTCPPCPAPEAAGGPSVFLFPPKPKDTLMISRTPEVTCVVVDVSHEDPEVKFNWYVDGVEVHNAKTKPREEQYNSTYRVVSVLTVLHQDWLNGKEYKCKVSNKALPAPIEKTISKAKGQPREPQVYTLPPSREEMTKNQVSLSCAVKGFYPSDIAVEWESNGQPENNYKTTPPVLDSDGSFFLVSKLTVDKSRWQQGNVFSCSVMHEALHNRFTQKSLSLSPGK
heavy: EVQLVESGGGLVQPGGSLRLSCAASGFTFSTYAMNWVRQAPGKGLEWVARIRSKYNNYATYYADSVKDRFTISRDDSKNTLYLQMNSLRAEDTAVYYCARHGNFGNSYVSWFAYWGQGTMVTVSSASTKGPSVFPLAPSSKSTSGGTAALGCLVKDYFPEPVTVSWNSGALTSGVHTFPAVLQSSGLYSLSSVVTVPSSSLGTQTYICNVNHKPSNTKVDKKVEPKSCDKTHTCPPCPAPEAAGGPSVFLFPPKPKDTLMISRTPEVTCVVVDVSHEDPEVKFNWYVDGVEVHNAKTKPREEQYNSTYRVVSVLTVLHQDWLNGKEYKCKVSNKALPAPIEKTISKAKGQPREPQVYTLPPSREEMTKNQVSLWCLVKGFYPSDIAVEWESNGQPENNYKTTPPVLDSDGSFFLYSKLTVDKSRWQQGNVFSCSVMHEALHNHYTQKSLSLSPGK
light: QAVVTQEPSLTVSPGGTVTLTCRSSTGAVTTSNYANWVQQKPGQAPRGLIGGTNKRAPGTPARFSGSLLGGKAALTLSGVQPEDEAEYYCALWYSNLWVFGGGTKLTVLGQPKAAPSVTLFPPSSEELQANKATLVCLISDFYPGAVTVAWKADSSPVKAGVETTTPSKQSNNKYAASSYLSLTPEQWKSHRSYSCQVTHEGSTVEKTVAPTECS
notes: Hole chain: 5A1-linker-5A1-Fc; knob chain: anti-CD3 Fab heavy chain-Fc; anti-CD3 light chain; also called format 11A incorporating the 5A1 ROR1-specific VHH
B2: FUSE-394 (bispecific antibody, human IgG1, lambda, L234A L235A)
chain: QVQLQESGGGSVQAGGSLKLSCTASGYTNRLKCMGWFRQAPGKEREEIATISTGTGNTYYADSVKGRFTFSQDKVKNTVYLQMNTLKPDDTGMYYCAADVRPDGTTCHYNSGGQGTQVTVSSEPKSSDKTHTCPPCPAPEAAGGPSVFLFPPKPKDTLMISRTPEVTCVVVDVSHEDPEVKFNWYVDGVEVHNAKTKPREEQYNSTYRVVSVLTVLHQDWLNGKEYKCKVSNKALPAPIEKTISKAKGQPREPQVYTLPPSREEMTKNQVSLSCAVKGFYPSDIAVEWESNGQPENNYKTTPPVLDSDGSFFLVSKLTVDKSRWQQGNVFSCSVMHEALHNRFTQKSLSLSPGK
heavy: B1 heavy
light: QAVVTQEPSLTVSPGGTVTLTCRSSTGAVTTSNYANWVQQKPGQAPRGLIGGTNKRAPGTPARFSGSLLGGKAALTLSGVQPEDEAEYYCALWYSNLWVFGGGTKLTVLGQPKAAPSVTLFPPSSEELQANKATLVCLISDFYPGAVTVAWKADSSPVKAGVETTTPSKQSNNKYAASSYLSLTPEQWKSHRSYSCQVTHEGSTVEKTVAPTECSGGGGSGGGGSGGGGSGGGGSQVQLQESGGGSVQAGGSLKLSCTASGYTNRLKCMGWFRQAPGKEREEIATISTGTGNTYYADSVKGRFTFSQDKVKNTVYLQMNTLKPDDTGMYYCAADVRPDGTTCHYNSGGQGTQVTVSS
notes: Hole chain: 5A1-Fc; knob chain: anti-CD3 Fab heavy chain-Fc; light chain: anti-CD3 light chain-linker-5A1; also called format 13cA incorporating the 5A1 ROR1-specific VHH

Key:
[1] = target: T1, human ROR1 (Receptor Tyrosine Kinase-Like Orphan Receptor 1) on the cell surface (human, UniProt Q01973 30-937); test: flow cytometry on MDA-MB-231 variants, low ROR1 density; low cell surface density of ROR1
T1 construct: whole, on cells; engineered into B16-F10 (high density) and LS174T (low density) cells; also called B16-F10-ROR1-H; LS174T-ROR1-L
T1 sequence (Q01973 30-937): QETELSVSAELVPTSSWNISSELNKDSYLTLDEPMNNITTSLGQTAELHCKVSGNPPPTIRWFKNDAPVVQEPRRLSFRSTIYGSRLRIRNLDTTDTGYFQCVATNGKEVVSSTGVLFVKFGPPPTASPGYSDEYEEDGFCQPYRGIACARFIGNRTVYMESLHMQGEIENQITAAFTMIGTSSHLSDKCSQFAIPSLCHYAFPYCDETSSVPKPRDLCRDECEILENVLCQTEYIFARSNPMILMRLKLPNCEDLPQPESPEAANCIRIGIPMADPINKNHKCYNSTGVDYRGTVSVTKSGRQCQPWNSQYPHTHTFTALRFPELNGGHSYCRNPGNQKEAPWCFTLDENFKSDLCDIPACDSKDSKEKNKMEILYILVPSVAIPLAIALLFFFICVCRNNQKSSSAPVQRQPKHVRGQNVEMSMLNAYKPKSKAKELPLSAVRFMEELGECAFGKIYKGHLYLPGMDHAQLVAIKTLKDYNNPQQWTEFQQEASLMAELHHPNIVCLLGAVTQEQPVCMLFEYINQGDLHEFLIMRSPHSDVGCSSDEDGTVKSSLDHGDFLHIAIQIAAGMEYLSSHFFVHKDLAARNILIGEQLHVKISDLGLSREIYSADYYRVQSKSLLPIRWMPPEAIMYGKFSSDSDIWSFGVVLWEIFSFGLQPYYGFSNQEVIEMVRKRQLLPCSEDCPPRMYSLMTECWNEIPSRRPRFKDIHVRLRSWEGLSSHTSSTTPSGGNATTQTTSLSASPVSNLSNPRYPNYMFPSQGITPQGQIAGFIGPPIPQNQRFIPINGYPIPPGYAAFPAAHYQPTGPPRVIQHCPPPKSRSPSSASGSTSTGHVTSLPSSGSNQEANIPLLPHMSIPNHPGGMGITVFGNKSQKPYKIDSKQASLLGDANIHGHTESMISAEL
Method: (§1) Binding of 2A11 (black line), 5A1 (dark grey line) and VHH8 (medium grey line) were tested in TCE format 12A. The commercial ROR1 specific Ab reported to bind the ROR1-Ig domain 2A2 (light grey line), served as the positive control and anti-HEL (dotted black line) served as the negative control. To better visualize binding of each test article to the three cells lines, we plotted MFI on the y-axis for each test article for HEK-293 cells (negative control; FIG. 4I), HEK-293 cells transfected with full length human ROR1 (FIG. 4J) and HEK-293 cells transfected with the ROR1 Ig domain linked to the cell surface via the GPI linker from CD59 (FIG. 4K).
(§2) Adherent target cells were collected by brief TrypLE treatment while suspension cells were directly collected. Collected cells were washed once with PBS by centrifugation at 500×g for 5 minutes at room temperature and added to V-bottom 96-well plate (200,000-300,000 cells per well). To prepared Live/Dead fixable red, one vial of powder was dissolved into 50 uL of DMSO to make stock solution and then diluted 1 uL of stock Live/Dead fixable red in 1 mL of PBS to prepare the working solution. 100 uL of Live/Dead fixable red working buffer was then added to the cell in the V-bottom 96-well plate (200,000-300,000 cells per well) and incubated for 15 minutes at room temperature. […] The samples were then analyzed on Cytek flow cytometer.

[2] = target: T1, human ROR1 (Receptor Tyrosine …); test: flow cytometry on MDA-MB-231 ROR1 normal cells (about 35,000 ROR1 per cell), secondary antibody to the IgG1 Fc
Method: as §1
as §2, with “temperature. After the 15-minute incubation, the cells were washed twice with PBS by centrifugation at 500 g for 5 minutes at room temperature. The cells were then cultured with antibodies at different concentrations in 100 uL of Biolegend staining buffer at 4° C. for 45 minutes. After the 45-minute incubation with primary antibody, the cells were washed with PBS by centrifugation at 500 g for 5 minutes at room temperature. The cells were then cultured with PE-Cy7-conjugated mouse-anti-human IgG secondary antibody in Biolegend staining buffer at 4° C. for 45 minutes.” for “temperature.”

human CD3 on T cells [3] = target: T2, human CD3 on T cells (human, UniProt P07766 23-207; P09693 23-182; P04234 22-171; P20963 22-164); test: flow cytometry on human pan T cells (T cells isolated from human PBMC), fluorescent secondary antibody to the IgG1 Fc; table row 'Binding EC50 (Kd)'
T2 construct: whole, on cells; also called human CD3 on Jurkat T cells; human CD3 on T cells isolated from human PBMC
T2 sequence (P07766 23-207, chain 1 of 4): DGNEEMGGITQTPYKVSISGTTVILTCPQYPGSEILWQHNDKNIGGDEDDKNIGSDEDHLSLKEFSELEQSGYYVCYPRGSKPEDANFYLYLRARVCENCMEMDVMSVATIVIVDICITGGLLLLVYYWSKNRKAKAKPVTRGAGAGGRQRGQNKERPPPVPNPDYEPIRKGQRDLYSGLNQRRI
T2 sequence (P09693 23-182, chain 2 of 4): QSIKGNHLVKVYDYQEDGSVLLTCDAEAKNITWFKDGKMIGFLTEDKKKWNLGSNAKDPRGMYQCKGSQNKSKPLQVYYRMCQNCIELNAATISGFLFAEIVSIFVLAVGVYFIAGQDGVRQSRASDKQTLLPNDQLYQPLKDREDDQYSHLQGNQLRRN
T2 sequence (P04234 22-171, chain 3 of 4): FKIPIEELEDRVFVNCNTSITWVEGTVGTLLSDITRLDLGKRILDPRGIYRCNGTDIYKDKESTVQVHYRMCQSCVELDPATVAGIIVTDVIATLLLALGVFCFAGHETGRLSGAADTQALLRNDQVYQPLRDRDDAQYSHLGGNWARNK
T2 sequence (P20963 22-164, chain 4 of 4): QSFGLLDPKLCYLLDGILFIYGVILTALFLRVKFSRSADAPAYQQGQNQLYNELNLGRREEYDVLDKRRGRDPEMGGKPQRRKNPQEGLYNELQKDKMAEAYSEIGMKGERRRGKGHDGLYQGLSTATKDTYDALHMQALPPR
Method: (§3) The CD3-specific Fab binding arm is presumed responsible for the observed binding. A Hen Egg Lysozyme (HEL)-specific antibody was used as the negative isotype control. Binding was measured via flow cytometry at various concentrations of test articles using a fluorescently labeled secondary antibody specific for the Fc domain of IgG1. The apparent affinity calculated for each test subject based on the data is shown under each graph. […] Binding to mouse CD3 was not tested because the anti-CD3 clone, 1F3-3, incorporated into the TCE is a humanized variant of clone SP34, which was derived in mouse and is well described as not binding mouse CD3.
as §2

[4] = target: T1, human ROR1 (Receptor Tyrosine …); test: flow cytometry on MDA-MB-231 ROR1 super high cells (about 2,000,000 ROR1 per cell), secondary antibody to the IgG1 Fc
Method: as §1
as §2, with “temperature. After the 15-minute incubation, the cells were washed twice with PBS by centrifugation at 500 g for 5 minutes at room temperature. The cells were then cultured with antibodies at different concentrations in 100 uL of Biolegend staining buffer at 4° C. for 45 minutes. After the 45-minute incubation with primary antibody, the cells were washed with PBS by centrifugation at 500 g for 5 minutes at room temperature. The cells were then cultured with PE-Cy7-conjugated mouse-anti-human IgG secondary antibody in Biolegend staining buffer at 4° C. for 45 minutes.” for “temperature.”

[5] = target: T3, cynomolgus (NHP) CD3 on cynomolgus pan-T cells (cynomolgus); test: flow cytometry on cynomolgus pan T cells, fluorescent secondary antibody to the IgG1 Fc; table row 'Binding EC50 (Kd)'
T3 construct: whole, on cells; also called cynomolgus CD3
Method: as §3, §2

[6] = target: T4, recombinant His tagged human ROR1 (human, UniProt Q01973 30-403, limits assumed); test: BLI (Octet), FUSE protein loaded on the biosensor, His tagged ROR1 in solution
T4 construct: Analyte in the BLI assay; also called Human ROR1-His; recombinant ROR1
T4 sequence (Q01973 30-403 limits assumed): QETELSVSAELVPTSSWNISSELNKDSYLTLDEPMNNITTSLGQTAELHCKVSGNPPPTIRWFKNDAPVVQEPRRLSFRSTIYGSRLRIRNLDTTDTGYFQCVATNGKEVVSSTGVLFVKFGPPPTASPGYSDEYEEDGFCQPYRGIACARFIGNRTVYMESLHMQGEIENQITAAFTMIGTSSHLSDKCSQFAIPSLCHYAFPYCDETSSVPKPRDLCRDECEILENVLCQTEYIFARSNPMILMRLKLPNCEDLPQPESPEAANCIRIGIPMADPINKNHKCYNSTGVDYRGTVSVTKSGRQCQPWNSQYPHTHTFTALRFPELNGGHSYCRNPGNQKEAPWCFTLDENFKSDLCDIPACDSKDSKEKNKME
Method: (§4) As shown in FIGS. 5A-5D, the binding affinities (KD) of TCEs for ROR1 were assessed. We examined the magnitude by which several TCEs and mutants thereof bind to recombinant ROR1. Kinetic binding graphs were generated via Bio-Layer Interferometry (BLI) using an Octet system. For each TCE, the biosensor tips were coated with FUSE proteins at 15 μg/ml and probed with either recombinant His tagged ROR1 at concentrations ranging from 100 pM to 10 μM. […] The binding affinity (KD), on rate (k-on) and off rate (k-dis), are summarized for ROR1 in FIG. 5D.
(§5) Antibodies were prepared in 1×PBS with 0.02% Tween-20 with the final concentration of 15 ug/ml. Human ROR1-His or CD3e-His protein were also prepared, and serial diluted (4-fold dilution ranging from 400 nM to 0.098 nM) in 1×PBS with 0.02% Tween-20. The biosensors were pre-moistened in 200 uL of 1×PBS with 0.02% Tween-20 for 10 minutes. Meanwhile, Octet BLI system (ForteBio) was prewarmed for 30 minutes and the flow rate was set to 1000 rpm. The biosensors (Anti-hIgG Fc Capture biosensor) were soaked in 250 uL of 1×PBS with 0.02% Tween-20 for 60 seconds at 30° C. to get an initial baseline reading. After the 60-second baseline reading, the biosensors were exposed to testing antibody for 300 seconds at 30° C. for the association between antibody and the biosensors (coupling antibody with biosensor). The biosensors with antibody were then exposed to human ROR1 or CD3e in 250 uL of 1×PBS with 0.02% Tween-20 at 30° C. for 300 seconds for the association reaction between antibody and human ROR1 or CD3e (association curve). After 300-second association reaction between antibody and antigen, the biosensors with antibody and antigen were then exposed to 250 uL of 1×PBS with 0.02% Tween-20 at 30° C. for 300 seconds for the dissociation reaction between antibody and […]. The binding affinity was calculated by the built-in data fitting algorithm.

human CD3 on T cells [7] = target: T2, human CD3 on T cells; test: flow cytometry on Jurkat T cells, fluorescent secondary antibody to the IgG1 Fc; table row 'Binding EC50 (Kd)'
Method: as §3, §2

[8] = target: T1, human ROR1 (Receptor Tyrosine …); test: flow cytometry on MDA-MB-231 variants, high ROR1 density; high cell surface density of ROR1
Method: as §1, §2

[9] = target: T5, mouse ROR1 on mouse 4T1 cells (mouse, UniProt Q9Z139 30-937); test: flow cytometry on 4T1 cells expressing mouse ROR1
T5 construct: whole, on cells
T5 sequence (Q9Z139 30-937): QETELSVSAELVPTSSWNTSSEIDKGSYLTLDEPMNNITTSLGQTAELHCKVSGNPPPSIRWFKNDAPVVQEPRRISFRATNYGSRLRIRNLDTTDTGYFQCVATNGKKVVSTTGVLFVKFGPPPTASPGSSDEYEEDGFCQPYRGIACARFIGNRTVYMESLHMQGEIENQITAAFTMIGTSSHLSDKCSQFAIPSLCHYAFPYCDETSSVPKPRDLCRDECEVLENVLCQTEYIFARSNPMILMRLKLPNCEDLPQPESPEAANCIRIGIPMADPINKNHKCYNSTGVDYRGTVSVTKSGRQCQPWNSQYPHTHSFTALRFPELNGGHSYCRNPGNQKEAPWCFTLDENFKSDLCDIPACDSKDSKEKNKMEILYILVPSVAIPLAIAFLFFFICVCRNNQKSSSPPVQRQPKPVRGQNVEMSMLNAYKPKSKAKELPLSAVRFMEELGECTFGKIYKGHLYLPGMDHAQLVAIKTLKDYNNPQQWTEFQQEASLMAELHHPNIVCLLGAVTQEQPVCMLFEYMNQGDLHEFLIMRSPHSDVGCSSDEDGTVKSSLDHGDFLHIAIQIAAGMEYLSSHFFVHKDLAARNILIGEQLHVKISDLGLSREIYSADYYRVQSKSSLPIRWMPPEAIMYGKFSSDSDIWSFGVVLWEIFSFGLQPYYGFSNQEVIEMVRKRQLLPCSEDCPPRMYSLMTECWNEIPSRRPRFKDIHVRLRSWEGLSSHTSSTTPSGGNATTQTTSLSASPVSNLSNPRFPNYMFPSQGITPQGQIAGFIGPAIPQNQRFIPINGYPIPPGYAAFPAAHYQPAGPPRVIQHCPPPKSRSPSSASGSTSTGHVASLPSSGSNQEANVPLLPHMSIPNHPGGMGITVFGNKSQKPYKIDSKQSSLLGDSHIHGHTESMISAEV

[10] = target: T1, human ROR1 (Receptor Tyrosine …); test: flow cytometry on MDA-MB-231 ROR1 high cells (about 500,000 ROR1 per cell), secondary antibody to the IgG1 Fc
Method: as §1
as §2, with “temperature. After the 15-minute incubation, the cells were washed twice with PBS by centrifugation at 500 g for 5 minutes at room temperature. The cells were then cultured with antibodies at different concentrations in 100 uL of Biolegend staining buffer at 4° C. for 45 minutes. After the 45-minute incubation with primary antibody, the cells were washed with PBS by centrifugation at 500 g for 5 minutes at room temperature. The cells were then cultured with PE-Cy7-conjugated mouse-anti-human IgG secondary antibody in Biolegend staining buffer at 4° C. for 45 minutes.” for “temperature.”

[11] = target: T1, human ROR1 (Receptor Tyrosine …); test: flow cytometry on MDA-MB-231 ROR1 low cells (about 17,000 ROR1 per cell), secondary antibody to the IgG1 Fc
Method: as §1
as §2, with “temperature. After the 15-minute incubation, the cells were washed twice with PBS by centrifugation at 500 g for 5 minutes at room temperature. The cells were then cultured with antibodies at different concentrations in 100 uL of Biolegend staining buffer at 4° C. for 45 minutes. After the 45-minute incubation with primary antibody, the cells were washed with PBS by centrifugation at 500 g for 5 minutes at room temperature. The cells were then cultured with PE-Cy7-conjugated mouse-anti-human IgG secondary antibody in Biolegend staining buffer at 4° C. for 45 minutes.” for “temperature.”

[12] = target: T4, recombinant His tagged human ROR1; test: BLI (Octet), FUSE protein loaded on the biosensor, His tagged ROR1 in solution; column 'kdis(1/s)'
Method: as §4, §5

[13] = target: T3, cynomolgus (NHP) CD3 on cynomolgus …; test: flow cytometry on cynomolgus pan-T cells
Method: as §3, §2

Binder | EC50 [1] [nM] | EC50 [2] [nM] | EC50 (human CD3 on T cells [3]) [nM] | EC50 [4] [nM] | EC50 [5] [nM] | Kd [6] [nM] | kon [6] [M⁻¹ s⁻¹] | EC50 (human CD3 on T cells [7]) [nM] | EC50 [8] [nM] | binding result [9] | EC50 [10] [nM] | EC50 [11] [nM] | koff [12] [s⁻¹] | fold difference in apparent binding affinity, cynomolgus against human CD3 [13] [fold]
B1 | ~300 | 281 | 4.45 | 16.3 | 3.04 | 21.8 | 21500 | 3.34 | ~15 | no binding | 26.5 | 288 | 0.000468 | < 2
B2 | ~100 | 154 | 10.5 | 6.1 | 7.46 | 56.9 | 28700 | 10.6 | ~5 | no binding | 19.5 | 69.7 | 0.00163 | < 2
